Assays:
[1] = molecular target: T1, NTCP (Homo sapiens, UniProt Q14973); experiment: Binding of FITC-labeled polypeptide to NTCP-293 cells; conditions: FITC label; for binding to NTCP-293 cells: 293 cells transfected with NTCP; for binding to 293 cells not transfected with NTCP (BLANK-293): control cells
T1 construct: expressed in transfected cells; host or cells: 293 (HEK293) cells
T1 sequence (Q14973 1-349): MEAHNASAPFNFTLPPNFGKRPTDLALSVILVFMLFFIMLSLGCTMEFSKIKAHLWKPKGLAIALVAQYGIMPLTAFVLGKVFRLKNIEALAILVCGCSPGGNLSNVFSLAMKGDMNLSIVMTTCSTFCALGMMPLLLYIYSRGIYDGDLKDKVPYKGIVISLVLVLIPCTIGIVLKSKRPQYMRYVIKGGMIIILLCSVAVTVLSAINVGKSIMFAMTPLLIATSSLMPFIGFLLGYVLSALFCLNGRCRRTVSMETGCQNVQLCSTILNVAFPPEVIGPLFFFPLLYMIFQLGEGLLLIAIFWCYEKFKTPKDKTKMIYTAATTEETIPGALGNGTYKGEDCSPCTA
From the text: NTCP-293 cell line was formed by transfecting non-hepatocyte-derived 293 cells with NTCP.

[2] = molecular target: sodium taurocholate cotransporting polypeptide (NTCP) expressed on transfected 293 cells (NTCP-293) (human) (UniProt Q14973); experiment: cell-based or functional assay
[3] = listed as hepalatide labeled with FIFC

hepalatide, sequence (P31868 13-59): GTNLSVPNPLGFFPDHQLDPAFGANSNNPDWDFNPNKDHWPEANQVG

FITC-hepalatide: hepalatide (Cmyr-47) fluorescently labeled by FITC at amino acid K at position 37
binding to NTCP-293 cells [1]: bound to NTCP-293 cells | binding to NTCP-293 cells [1, 3]: bind to NTCP expressing HEK293 cells | binding to 293 cells not transfected with NTCP (BLANK-293) [1]: did not bind to 293 cells | binding to 293 cells not transfected with NTCP (BLANK-293) [1, 3]: do not bind to control HEK293 cells

hepalatide (peptide)
IC50 of inhibition of NTCP-293 uptake of 3H-labeled bile acid (3H-TA) [2]: 0.839 µg/mL

From patent publication US20200316166A1, “Drug and Method for Treating Liver Diseases Related to Hepatitis B Viruses in Full-Dose Condition” (Shanghai Hep Pharmaceutical Co., Ltd., priority 2017, published 2020)
